Measurements published in patent US20210096139A1.

Target: human CSF tau (human) (UniProt P10636)
Assay: IP of tau from human CSF on antibody beads; recovery assessed by N-terminus tau ELISA (HJ8.5 capture, HJ8.7-biotin detection); value is the average over Tau12, HJ8.5 and HJ8.7

UniProt P10636, sequence (P10636 2-758 limits assumed): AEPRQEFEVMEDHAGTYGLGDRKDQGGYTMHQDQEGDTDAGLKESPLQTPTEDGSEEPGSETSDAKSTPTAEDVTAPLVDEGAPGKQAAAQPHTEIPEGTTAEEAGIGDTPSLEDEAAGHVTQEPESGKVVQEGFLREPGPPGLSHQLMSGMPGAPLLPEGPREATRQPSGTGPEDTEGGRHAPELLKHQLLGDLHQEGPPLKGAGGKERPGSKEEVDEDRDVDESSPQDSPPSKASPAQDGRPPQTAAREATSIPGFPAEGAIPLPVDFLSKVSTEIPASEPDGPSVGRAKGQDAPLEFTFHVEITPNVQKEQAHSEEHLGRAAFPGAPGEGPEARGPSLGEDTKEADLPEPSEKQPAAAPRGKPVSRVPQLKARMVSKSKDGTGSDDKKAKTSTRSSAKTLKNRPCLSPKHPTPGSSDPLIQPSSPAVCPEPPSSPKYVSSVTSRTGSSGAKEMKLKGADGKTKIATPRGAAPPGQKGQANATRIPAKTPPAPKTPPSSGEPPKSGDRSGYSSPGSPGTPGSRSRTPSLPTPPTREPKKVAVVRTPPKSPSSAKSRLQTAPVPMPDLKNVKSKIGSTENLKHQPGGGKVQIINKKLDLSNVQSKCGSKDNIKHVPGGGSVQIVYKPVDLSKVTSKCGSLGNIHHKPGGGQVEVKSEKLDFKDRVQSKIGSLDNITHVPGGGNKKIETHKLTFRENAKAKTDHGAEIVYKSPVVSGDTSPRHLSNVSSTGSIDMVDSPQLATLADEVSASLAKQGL

immunoprecipitation efficiency [%] | Substance
99.3 | Tau12 (antibody)
99.3 | HJ8.7 (antibody)
